Results reported in patent US20170022287A1 (Chugai, published 2017).

Key:
[1] = biological target: full-length human CD137-Fc fusion protein (human); assay: ELISA, coated CD137-Fc protein 2 µg/mL, antibody 10 or 5 µg/mL, absorbance 620 nm; Non (uncoated well) 0.101
[2] = biological target: T1, CRD2-4; assay: as above
T1 construct: also called fragmented human CD137-Fc fusion protein CRD2-4

[3] = biological target: T2, CRD1-2; assay: as above
T2 construct: also called fragmented human CD137-Fc fusion protein CRD1-2

[4] = biological target: T3, CRD2-3; assay: as above
T3 construct: also called fragmented human CD137-Fc fusion protein CRD2-3

[5] = biological target: T4, CRD3-4; assay: as above
T4 construct: also called fragmented human CD137-Fc fusion protein CRD3-4

[6] = biological target: T5, CRD1-3; assay: as above
T5 construct: also called fragmented human CD137-Fc fusion protein CRD1-3

[7] = biological target: full-length human CD137-Fc fusion protein (human); assay: ELISA, coated CD137-Fc protein 2 µg/mL, antibody 10 or 5 µg/mL; absorbance 620 nm divided by that of the uncoated well
[8] = biological target: T1, CRD2-4; assay: as above
[9] = biological target: T2, CRD1-2; assay: as above
[10] = biological target: T3, CRD2-3; assay: as above
[11] = biological target: T4, CRD3-4; assay: as above
[12] = biological target: T5, CRD1-3; assay: as above
[13] = biological target: T6, CRD1; assay: as above
T6 construct: also called fragmented human CD137-Fc fusion protein CRD1

[14] = biological target: full-length human CD137-Fc fusion protein (human); assay: ELISA, coated CD137-Fc protein 2 µg/mL, antibody 10 or 5 µg/mL, absorbance 620 nm; Non (uncoated well) 0.4435
[15] = biological target: T1, CRD2-4; assay: as above
[16] = biological target: T2, CRD1-2; assay: as above
[17] = biological target: T3, CRD2-3; assay: as above
[18] = biological target: T6, CRD1; assay: as above
[19] = biological target: T4, CRD3-4; assay: as above
[20] = biological target: T5, CRD1-3; assay: as above
[21] = biological target: T2, CRD1-2; assay: ELISA, coated CD137-Fc protein 2 µg/mL, antibody 10 or 5 µg/mL, absorbance 620 nm; Non (uncoated well) 0.055
Procedure: (§1) Fragmented human CD137-Fc fusion proteins were diluted to 2 μg/mL in an aqueous sodium carbonate solution adjusted to pH9.6. Fifty μL of a diluted fragmented human CD137-Fc fusion protein was added individually to each well of a Nunc MaxiSorp flat-bottom 96 well plate (Nunc). This was allowed to stand at 4° C. overnight or longer, and then the plate was allowed to stand at room temperature for one hour so that the plate has the same temperature as the room temperature. The solution containing the fragmented human CD137-Fc fusion protein was removed by tilting, and each well was washed three times with 300 μL of Wash buffer (TBS containing 0.1% Tween20, TaKaRa). Next, 150 μL of blocking buffer (TBS containing 2% BSA) was added to each well, and this was allowed to stand for one hour or more. The blocking buffer was removed by tilting, and each well was washed three times with Wash Buffer in a similar manner to an earlier step. Then, 50 μL of an antibody solution prepared in advance by dilution with TBS to 10 μg/mL or 5 μg/mL was added to each well. This was subjected to a speed of 600 rpm or so for one hour at room temperature to bind the antibody to the immobilized antigen. […] 100 μL of a secondary antibody solution produced by 1000-fold dilution with TBS containing 0.1% Tween20 was added to each well. For the secondary antibody, ANTIBODY ALKALINE PHOSPHATASE CONJUGATE HUMAN IMMUNOGLOBULIN ABSORBED Goat Anti-Human Kappa Alkaline Phosphate from BIOSOURCE was used in the case of antibodies carrying a Kappa chain, and Human Lambda Light Chain Antibody; Goat anti-Human Lambda Light Chain Antibody Alkaline Phosphatase Conjugated from BETHYL LABORATORIES INC. was used in the case of antibodies carrying a Lambda chain. […] Color development was performed using the BluePhos Microwell kit from KPL. After the chromogenic reaction was stopped using the AP stop solution from KPL, the absorbance was measured at 620 nm on an absorptiometer.

[22] = biological target: T6, CRD1; assay: as above
Procedure: as §1

[23] = biological target: T4, CRD3-4; assay: as above
Procedure: as §1

T1 sequence (chain, as listed by the source limits assumed): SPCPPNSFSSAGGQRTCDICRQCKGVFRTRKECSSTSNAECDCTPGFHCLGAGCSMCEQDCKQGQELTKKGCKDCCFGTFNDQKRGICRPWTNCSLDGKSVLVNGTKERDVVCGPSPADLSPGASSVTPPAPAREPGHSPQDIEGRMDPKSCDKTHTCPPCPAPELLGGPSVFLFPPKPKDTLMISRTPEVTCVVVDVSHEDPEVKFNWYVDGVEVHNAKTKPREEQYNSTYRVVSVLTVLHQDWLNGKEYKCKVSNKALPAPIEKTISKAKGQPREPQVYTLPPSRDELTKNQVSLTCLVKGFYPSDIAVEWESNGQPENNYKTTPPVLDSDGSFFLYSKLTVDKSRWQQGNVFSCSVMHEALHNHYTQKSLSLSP
T2 sequence (chain, as listed by the source limits assumed): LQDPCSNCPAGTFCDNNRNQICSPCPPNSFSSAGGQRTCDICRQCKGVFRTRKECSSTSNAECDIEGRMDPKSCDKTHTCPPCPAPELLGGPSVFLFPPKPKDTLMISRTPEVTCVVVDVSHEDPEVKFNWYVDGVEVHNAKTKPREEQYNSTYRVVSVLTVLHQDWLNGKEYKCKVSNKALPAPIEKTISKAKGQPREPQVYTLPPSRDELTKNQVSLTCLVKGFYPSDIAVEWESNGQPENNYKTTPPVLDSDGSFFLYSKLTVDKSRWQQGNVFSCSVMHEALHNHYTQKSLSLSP
T5 sequence (chain, as listed by the source limits assumed): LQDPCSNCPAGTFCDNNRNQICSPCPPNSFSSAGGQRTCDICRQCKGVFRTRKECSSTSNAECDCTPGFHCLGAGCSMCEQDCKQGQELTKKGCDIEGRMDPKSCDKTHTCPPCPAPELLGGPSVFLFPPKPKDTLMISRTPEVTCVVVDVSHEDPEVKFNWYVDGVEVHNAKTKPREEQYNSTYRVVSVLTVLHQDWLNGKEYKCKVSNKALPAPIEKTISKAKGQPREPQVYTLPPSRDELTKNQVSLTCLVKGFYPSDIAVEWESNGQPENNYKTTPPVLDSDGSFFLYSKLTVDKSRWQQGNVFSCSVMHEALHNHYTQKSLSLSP
T6 sequence (chain, as listed by the source limits assumed): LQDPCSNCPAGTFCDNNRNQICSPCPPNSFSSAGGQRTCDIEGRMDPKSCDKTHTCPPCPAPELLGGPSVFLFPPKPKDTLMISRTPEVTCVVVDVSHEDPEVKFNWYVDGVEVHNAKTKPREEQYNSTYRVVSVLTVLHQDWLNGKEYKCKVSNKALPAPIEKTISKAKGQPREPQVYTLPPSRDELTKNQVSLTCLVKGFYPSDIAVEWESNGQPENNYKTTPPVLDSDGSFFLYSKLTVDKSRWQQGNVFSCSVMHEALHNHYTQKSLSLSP
T4 sequence (chain, as listed by the source limits assumed): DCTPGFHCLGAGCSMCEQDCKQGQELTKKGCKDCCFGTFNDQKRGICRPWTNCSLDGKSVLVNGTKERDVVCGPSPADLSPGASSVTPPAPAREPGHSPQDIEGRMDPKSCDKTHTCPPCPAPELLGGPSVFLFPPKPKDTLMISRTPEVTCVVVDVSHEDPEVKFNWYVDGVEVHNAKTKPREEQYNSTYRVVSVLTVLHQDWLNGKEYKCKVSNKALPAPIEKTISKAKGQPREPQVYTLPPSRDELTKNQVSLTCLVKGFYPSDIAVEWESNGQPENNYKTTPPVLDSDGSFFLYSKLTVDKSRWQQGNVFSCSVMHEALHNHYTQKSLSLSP
T3 sequence (chain, as listed by the source limits assumed): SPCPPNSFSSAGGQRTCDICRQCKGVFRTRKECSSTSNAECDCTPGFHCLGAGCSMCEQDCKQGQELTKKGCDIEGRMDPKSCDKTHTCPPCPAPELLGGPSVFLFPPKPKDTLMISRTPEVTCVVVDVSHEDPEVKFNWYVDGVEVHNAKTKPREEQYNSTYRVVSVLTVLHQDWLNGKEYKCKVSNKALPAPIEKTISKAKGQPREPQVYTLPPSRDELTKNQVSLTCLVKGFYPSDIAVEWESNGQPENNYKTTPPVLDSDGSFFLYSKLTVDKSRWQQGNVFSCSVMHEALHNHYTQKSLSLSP
Sequence of full-length human CD137-Fc fusion protein (human) (chain, as listed by the source limits assumed): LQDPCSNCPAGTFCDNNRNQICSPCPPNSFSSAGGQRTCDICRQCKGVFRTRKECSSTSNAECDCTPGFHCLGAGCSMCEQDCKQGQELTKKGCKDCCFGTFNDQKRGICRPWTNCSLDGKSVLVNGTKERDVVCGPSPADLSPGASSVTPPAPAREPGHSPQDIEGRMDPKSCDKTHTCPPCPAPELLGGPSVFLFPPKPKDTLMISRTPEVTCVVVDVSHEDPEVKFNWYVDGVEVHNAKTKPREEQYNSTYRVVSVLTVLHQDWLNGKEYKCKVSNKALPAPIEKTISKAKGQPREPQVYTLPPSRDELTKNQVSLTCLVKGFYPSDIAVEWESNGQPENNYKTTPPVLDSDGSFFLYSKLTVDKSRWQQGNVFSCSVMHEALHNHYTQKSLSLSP

B1: R10 (antibody, V domains shown)
VH: not shown
VL: DIQMTQSPSSLSASVGDRVTITCRASQSISSYLNWYQQKPGKAPKLLIYAASSLQSGVPSRFSGSGSGTDFTLTISSLQPEDFATYYCQQFDNFPLTFGGGTKVEIK
notes: Synthetic library clone; Fab on phage in the phage ELISA
With B1 the “ELISA color development level” value [1] was 2.59, the “ELISA color development level” value [2] was 2.46 and the “ELISA color development level” value [3] was 0.222. The “ELISA color development level” value [4] was 2.64, the “ELISA color development level” value [5] was 2.75 and the “ELISA color development level” value [6] was 2.46. The “Ratio with respect to Non-Coating” value [7] was 25.6, the “Ratio with respect to Non-Coating” value [8] was 24.3 and the “Ratio with respect to Non-Coating” value [9] was 2.2. For the same binder, the “Ratio with respect to Non-Coating” value [10] was 26.1, the “Ratio with respect to Non-Coating” value [11] was 27.2 and the “Ratio with respect to Non-Coating” value [12] was 24.4.

B2: R7 (antibody, V domains shown)
VH: QVQLLESGGGLVQPGGSLRLSCAASGFTFSSYAMSWVRQAPGKGLEWVSAISGSGGSTYYADSVKGRFTISRDNSKNTLYLQMNSLRAEDTAVYYCARDRAMYHPSFNYWGQGTLVTVSS
VL: DIQMTQSPSSLSASVGDRVTITCRASQSISSYLNWYQQKPGKAPKLLIYAASSLQSGVPSRFSGSGSGTDFTLTISSLQPEDFATYYCQQFNSYPLTFGGGTKVEIK
notes: as for B1
For B2, the “Ratio with respect to Non-Coating” value [7] was 4.3, the “Ratio with respect to Non-Coating” value [8] was 4.9 and the “Ratio with respect to Non-Coating” value [9] was 1.8. For the same binder, the “Ratio with respect to Non-Coating” value [10] was 5.7, the “Ratio with respect to Non-Coating” value [13] was 1.4 and the “Ratio with respect to Non-Coating” value [11] was 5.9. The “Ratio with respect to Non-Coating” value [12] was 5, the “ELISA color development level” value [14] was 1.92 and the “ELISA color development level” value [15] was 2.19. The “ELISA color development level” value [16] was 0.814, the “ELISA color development level” value [17] was 2.52 and the “ELISA color development level” value [18] was 0.61. For the same binder, the “ELISA color development level” value [19] was 2.63 and the “ELISA color development level” value [20] was 2.23.

B3: M (antibody, human IgG1, lambda, V domains shown)
VH: EVQLVQSGAEVKKPGESLRISCKGSGYSFSTYWISWVRQMPGKGLEWMGKIYPGDSYTNYSPSFQGQVTISADKSISTAYLQWSSLKASDTAMYYCARGYGIFDYWGQGTLVTVSS
VL: SYELTQPPSVSVSPGQTASITCSGDNIGDQYAHWYQQKPGQSPVLVIYQDKNRPSGIPERFSGSNSGNTATLTISGTQAMDEADYYCATYTGFGSLAVFGGGTKLTVLQ
notes: also called Control M
With B3 the “Ratio with respect to Non-Coating” value [11] was 41.1, the “ELISA color development level” value [21] was 0.085 and the “ELISA color development level” value [22] was 0.093. For the same binder, the “ELISA color development level” value [23] was 2.26.
